Data taken from the RNAGym collection of RNA variant scans (doi:10.7554/elife.80360).

B1: Hairpin Ribozyme (parent)
chain: GUCCUCUUUCACGUGCGCGUGAAAGAGAGAAGUGAACCAGAGAAACACACGUUGUGGUAUAUUACCUGGUA

Variants of: B1
Assay: self-cleavage, relative activity (ratio to wild type); higher = more cleavage; co-transcriptional

Row | Variant | self-cleavage
1 | G40C C46U | 0.116
2 | A41G G68U | 0.364
3 | G40C C48U | 0.135
4 | G40C C48A | 0.128
5 | A41G A44U | 0.185
6 | A41G G56A | 0.255
7 | G40C A45C | 0.0755
8 | G40C A43U | 0.128
9 | G40C A43C | 0.168
10 | G40U U62C | 0.212
11 | G40U U62A | 0.141
12 | A41C G57C | 0.226
13 | G40U G42A | 0.202
14 | A41U C66U | 0.46
15 | G40A A44G | 0.144
16 | G40A A44C | 0.161
17 | A41C A61G | 0.304
18 | A41G C66U | 0.682
19 | A41G C66A | 0.355
20 | A41G G57U | 0.184
21 | A41G G57A | 0.184
22 | G40A U62C | 0.141
23 | G40A U62A | 0.12
24 | G40U C65A | 0.158

Row | Variant | self-cleavage
25 | G40U A44C | 0.105
26 | G40U A44U | 0.142
27 | A41C A59C | 0.17
28 | G40A G69C | 0.11
29 | A41G U53G | 1.05
30 | A41G A71C | 1.34
31 | A41G A71G | 1.08
32 | A41G A71U | 0.733
33 | G40U G69U | 0.0875
34 | G40A U53C | 0.46
35 | G40A U53G | 0.169
36 | G40A U70C | 0.136
37 | G40C A61C | 0.107
38 | A41G U60G | 0.367
39 | G40A A59C | 0.121
40 | G40A A59U | 0.136
41 | G40C A44C | 0.0317
42 | A41C U58C | 1.2
43 | A41C U58G | 1.18
44 | A41U A64G | 0.372
45 | A41U A64C | 0.153
46 | A41U A64U | 0.258
47 | A41U U53G | 1.16
48 | A41G U55G | 0.138

Row | Variant | self-cleavage
49 | A41G A47G | 0.0362
50 | A41G G69U | 0.42
51 | A41C A43G | 0.191
52 | G40A G51U | 0.404
53 | G40C A47C | 0.142
54 | G40U U58A | 0.155
55 | G40C U53G | 0.103
56 | G40C U53C | 0.168
57 | A41G U52G | 1.15
58 | G40A A64G | 0.119
59 | G40A G42U | 0.127
60 | G40A U63G | 0.126
61 | A41U A45G | 0.218
62 | A41U A44G | 0.153
63 | A41U A44C | 0.115
64 | G40C G69C | 0.169
65 | A41C A71G | 1.26
66 | A41C A71U | 1.18
67 | G40A C50G | 0.243
68 | A41U G54U | 1.19
69 | A41C G42A | 0.805
70 | A41C A64G | 0.173
71 | G40A C65G | 0.0639
72 | A41U G51U | 1.5

Row | Variant | self-cleavage
73 | G40U G56C | 0.147
74 | G40U G56A | 0.174
75 | A41G G54C | 0.672
76 | A41G G54A | 0.481
77 | G40A A45C | 0.0818
78 | G40C A64G | 0.129
79 | G40C A64C | 0.126
80 | G40U | 0.175
81 | G40C | 0.128
82 | A41C A47U | 0.229
83 | G40U U53A | 0.121
84 | G40C G54C | 0.114
85 | G40U A47G | 0.18
86 | G40U A47C | 0.118
87 | A41C A49U | 0.0586
88 | A41C A49G | 0.561
89 | G40A U52C | 0.347
90 | G40A U52A | 0.352
91 | A41U A49C | 0.238
92 | A41U A49G | 1.06
93 | A41U A61C | 0.39
94 | G40U U70C | 0.12
95 | A41U G42C | 0.464
96 | A41G U62C | 0.198

Row | Variant | self-cleavage
97 | A41G U62A | 0.0775
98 | A41C U55C | 0.484
99 | G40U C48G | 0.189
100 | G40U C48U | 0.181
101 | G40C U67C | 0.098
102 | A41C U70A | 0.732
103 | A41C U70G | 0.91
104 | G40A U58G | 0.19
105 | G40A U58A | 0.134
106 | G40U U67G | 0.151
107 | G40U U67C | 0.0949
108 | G40U G51C | 0.104
109 | A41C G56C | 0.237
110 | A41U C50G | 0.756
111 | G40U U63A | 0.138
112 | G40U U60A | 0.191
113 | A41C U53G | 0.758
114 | G40C U62G | 0.0847
115 | A41G C48U | 0.162
116 | A41G C48G | 0.121
117 | A41U C46G | 0.133
118 | G40C G56C | 0.122
119 | G40C U60A | 0.0252
120 | G40C U60G | 0.102

Row | Variant | self-cleavage
121 | G40C G68U | 0.148
122 | A41U U60A | 1.37
123 | A41G C65U | 1.05
124 | G40C C65U | 0.129
125 | A41U G69U | 0.348
126 | A41U G69C | 0.55
127 | A41U G69A | 0.685
128 | G40U C66U | 0.223
129 | A41G G51C | 0.677
130 | A41U U62A | 0.143
131 | A41G C50A | 0.255
132 | A41C C50A | 0.634
133 | G40A C66A | 0.322
134 | G40A A61U | 0.177
135 | A41U G57U | 0.493
136 | A41C | 1.21
137 | A41U | 1.29
138 | A41G | 0.913
139 | G40A C48U | 0.136
140 | G40A C48G | 0.135
141 | G40A C48A | 0.246
142 | G40C A41C | 0.108
143 | A41U G56U | 0.125
144 | A41U G56A | 0.285

Row | Variant | self-cleavage
145 | A41C C48U | 0.183
146 | G40C C50G | 0.12
147 | A41C U52G | 0.654
148 | A41G C46A | 0.151
149 | A41U A43U | 0.187
150 | A41G A59U | 0.138
151 | G40C U63G | 0.135
152 | G40C U63A | 0.183
153 | A41G A61U | 0.195
154 | A41G A61C | 0.299
155 | A41G A43U | 0.152
156 | A41G A43C | 0.285
157 | A41C G54A | 0.829
158 | G40A G68U | 0.156
159 | G40A G68C | 0.223
160 | G40A G68A | 0.211
161 | A41U U58C | 1.41
162 | G40U A64C | 0.175
163 | G40U A64U | 0.1
164 | A41G A64G | 0.326
165 | G40C G57U | 0.106
166 | G40C G57C | 0.134
167 | A41C U67C | 0.249
